In assay [1] the target is SARS-CoV main protease Δ(302–306) (SARS-CoV). The assay is described as follows: AUC.
For assay [2], the target named is SARS-CoV main protease Δ(303–306) (SARS-CoV). The assay is described as follows: AUC.
Assay [3] has the same target.
Assay [4] deals with SARS-CoV main protease Δ(306) (SARS-CoV). The assay is described as follows: AUC.
For assay [5] the target is unchanged.
Assay [6] deals with SARS-CoV main protease Δ(297–306) (SARS-CoV). The assay is described as follows: AUC.
For assay [7], the target named is SARS-CoV main protease Δ(304–306) (SARS-CoV). The assay is described as follows: AUC.
Assay [8] has the same target.
In assay [9] the target is SARS-CoV main protease Δ(301–306) (SARS-CoV).
In assay [10] the target is SARS-CoV main protease Δ(305–306) (SARS-CoV). Briefly: AUC.
For assay [11] the target is unchanged.
Assay [12] has as its target SARS-CoV main protease Δ(298–306) (SARS-CoV). The assay is described as follows: AUC.

The term koff denotes the rate constant with which the complex falls apart. As to “SARS-CoV main protease Δ(302–306) (domain or fragment)”, the koff in assay [1] came to 0.01 s⁻¹.
The term Kd denotes the free concentration of one partner at which half of the binding sites on the other are occupied at equilibrium, for simple one-to-one binding. The low end stands for higher affinity, the high end for lower affinity. Substance “SARS-CoV main protease Δ(303–306) (domain or fragment)” returned a dissociation constant Kd in assay [2] of 340 nM. In [3], this substance yielded a catalytic constant kcat for the 11-mer peptide ABZ-…-DNP of 0.022 s⁻¹.
On to “SARS-CoV main protease Δ(306) (domain or fragment)”, for which, in assay [4], the dissociation constant Kd amounted to 100 nM and the koff worked out at 0.6 s⁻¹. The catalytic constant kcat for the 11-mer peptide ABZ-…-DNP in [5] came out at 0.043 s⁻¹.
In assay [6], “SARS-CoV main protease Δ(297–306) (domain or fragment)” returned a Kd of 393000 nM and a koff of 123 s⁻¹.
“SARS-CoV main protease Δ(304–306) (domain or fragment)” yielded a koff in assay [7] of 0.01 s⁻¹. Further, the catalytic constant kcat for the 11-mer peptide ABZ-…-DNP in [8] was found to be 0.027 s⁻¹.
The substance “SARS-CoV main protease Δ(301–306) (domain or fragment)” displayed a catalytic constant kcat for the 11-mer peptide ABZ-…-DNP in assay [9] of 0.025 s⁻¹.
In assay [10], “SARS-CoV main protease Δ(305–306) (domain or fragment)” registered a Kd of 80 nM and a koff of 0.14 s⁻¹. Also, the catalytic constant kcat for the 11-mer peptide ABZ-…-DNP in [11] turned out to be 0.039 s⁻¹.
Take “SARS-CoV main protease Δ(298–306) (domain or fragment)”: in [12], the Kd was 313000 nM and the koff came to 36 s⁻¹.

For the origin of these results see PMC7094404 (Archives of Biochemistry and Biophysics, 2008).
